Tested on: Escherichia coli TOP10
Experiment: shrunken log2 fold change of peptide-encoding DNA abundance (4.5 h post-induction vs induction); higher = less antimicrobial activity (less host growth inhibition)
Details: time post-induction: 4.5 h; library: site-saturation at positions 5, 18, 19, 20
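Also: peptides expressed intracellularly from a pBAD plasmid library in pooled LB shake-flask culture, induced with 0.3% L-arabinose, DNA abundance read by NGS, three biological replicates, DESeq2 with apeglm shrinkage.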

Sequence: RRIRIRPPRLPRPRPRPFDEPRP
- shrunken log2 fold change: -0.288

Sequence: RRIRCRPPRLPRPRPRPALVPRP
- shrunken log2 fold change: 0.281

Sequence: RRIRSRPPRLPRPRPRPNLLPRP
- shrunken log2 fold change: -0.0918

Sequence: RRIRMRPPRLPRPRPRPSPWPRP
- shrunken log2 fold change: 0.61

Sequence: RRIRGRPPRLPRPRPRPYPCPRP
- shrunken log2 fold change: -0.0571

Sequence: RRIRNRPPRLPRPRPRPLCMPRP
- shrunken log2 fold change: -0.218

Sequence: RRIRDRPPRLPRPRPRPMGDPRP
- shrunken log2 fold change: 0.25

Sequence: RRIRDRPPRLPRPRPRPSHRPRP
- shrunken log2 fold change: 0.102

Sequence: RRIRCRPPRLPRPRPRPKMHPRP
- shrunken log2 fold change: -0.121

Sequence: RRIRNRPPRLPRPRPRPSHHPRP
- shrunken log2 fold change: -0.421

Sequence: RRIRFRPPRLPRPRPRPRVCPRP
- shrunken log2 fold change: 0.152

Sequence: RRIRWRPPRLPRPRPRPPGHPRP
- shrunken log2 fold change: 0.403

Sequence: RRIRLRPPRLPRPRPRPGHYPRP
- shrunken log2 fold change: -0.0695

Sequence: RRIRDRPPRLPRPRPRPQFWPRP
- shrunken log2 fold change: 0.345

Sequence: RRIRVRPPRLPRPRPRPWKFPRP
- shrunken log2 fold change: -0.00968

Sequence: RRIRYRPPRLPRPRPRPNFPPRP
- shrunken log2 fold change: -0.313

Sequence: RRIRDRPPRLPRPRPRPTNEPRP
- shrunken log2 fold change: 0.265

Sequence: RRIRYRPPRLPRPRPRPCYAPRP
- shrunken log2 fold change: -0.00203

Sequence: RRIRSRPPRLPRPRPRPGFLPRP
- shrunken log2 fold change: 0.078

Sequence: RRIRTRPPRLPRPRPRPPWKPRP
- shrunken log2 fold change: -0.107

Sequence: RRIRQRPPRLPRPRPRPRLYPRP
- shrunken log2 fold change: 0.0786

Sequence: RRIRIRPPRLPRPRPRPVGLPRP
- shrunken log2 fold change: -0.0289

Sequence: RRIRARPPRLPRPRPRPQPHPRP
- shrunken log2 fold change: 0.347

Sequence: RRIRRRPPRLPRPRPRPFTSPRP
- shrunken log2 fold change: -0.0327

Sequence: RRIRNRPPRLPRPRPRPECVPRP
- shrunken log2 fold change: -0.127

Sequence: RRIRLRPPRLPRPRPRPPHLPRP
- shrunken log2 fold change: -0.0637

Sequence: RRIRVRPPRLPRPRPRPSCGPRP
- shrunken log2 fold change: -0.113

Sequence: RRIRFRPPRLPRPRPRPGGGPRP
- shrunken log2 fold change: 0.727

Sequence: RRIRRRPPRLPRPRPRPILLPRP
- shrunken log2 fold change: -0.149

Sequence: RRIRDRPPRLPRPRPRPYYHPRP
- shrunken log2 fold change: -0.972

Sequence: RRIRIRPPRLPRPRPRPIGVPRP
- shrunken log2 fold change: -0.0176

Sequence: RRIRRRPPRLPRPRPRPHPWPRP
- shrunken log2 fold change: 0.25

Sequence: RRIRHRPPRLPRPRPRPCHLPRP
- shrunken log2 fold change: -0.113

Sequence: RRIRWRPPRLPRPRPRPKEWPRP
- shrunken log2 fold change: 0.00353

Sequence: RRIRTRPPRLPRPRPRPSYFPRP
- shrunken log2 fold change: -0.85

Sequence: RRIRLRPPRLPRPRPRPAARPRP
- shrunken log2 fold change: 0.453

Sequence: RRIRERPPRLPRPRPRPCIIPRP
- shrunken log2 fold change: -0.449

Sequence: RRIRGRPPRLPRPRPRPKIRPRP
- shrunken log2 fold change: 0.118

Sequence: RRIRGRPPRLPRPRPRPWRHPRP
- shrunken log2 fold change: -0.0287

Sequence: RRIRVRPPRLPRPRPRPHIRPRP
- shrunken log2 fold change: -0.503

Sequence: RRIRQRPPRLPRPRPRPCFDPRP
- shrunken log2 fold change: -0.103

Sequence: RRIRSRPPRLPRPRPRPIHYPRP
- shrunken log2 fold change: -0.386

Sequence: RRIRVRPPRLPRPRPRPALNPRP
- shrunken log2 fold change: -0.142

Sequence: RRIRFRPPRLPRPRPRPINNPRP
- shrunken log2 fold change: -0.683

Sequence: RRIRSRPPRLPRPRPRPIQKPRP
- shrunken log2 fold change: 0.0496

Sequence: RRIRCRPPRLPRPRPRPFAWPRP
- shrunken log2 fold change: 0.0983

Sequence: RRIRRRPPRLPRPRPRPEICPRP
- shrunken log2 fold change: 0.181

Sequence: RRIRTRPPRLPRPRPRPHFHPRP
- shrunken log2 fold change: -0.589

Sequence: RRIRPRPPRLPRPRPRPFRCPRP
- shrunken log2 fold change: 0.12

Sequence: RRIRSRPPRLPRPRPRPWYMPRP
- shrunken log2 fold change: -0.262

Sequence: RRIRRRPPRLPRPRPRPCSIPRP
- shrunken log2 fold change: -0.0224

Sequence: RRIRQRPPRLPRPRPRPNQDPRP
- shrunken log2 fold change: -0.0715

Sequence: RRIRNRPPRLPRPRPRPFHVPRP
- shrunken log2 fold change: -0.128

Sequence: RRIRMRPPRLPRPRPRPVDWPRP
- shrunken log2 fold change: 1.21

Sequence: RRIRHRPPRLPRPRPRPHPAPRP
- shrunken log2 fold change: 0.21

Sequence: RRIRERPPRLPRPRPRPVVRPRP
- shrunken log2 fold change: 0.0531

Sequence: RRIRMRPPRLPRPRPRPRFVPRP
- shrunken log2 fold change: 0.236

Sequence: RRIRDRPPRLPRPRPRPHEMPRP
- shrunken log2 fold change: -0.0853

Sequence: RRIRYRPPRLPRPRPRPRFEPRP
- shrunken log2 fold change: -0.386

Sequence: RRIRDRPPRLPRPRPRPHTFPRP
- shrunken log2 fold change: -0.111

Sequence: RRIRRRPPRLPRPRPRPITGPRP
- shrunken log2 fold change: 0.111

Sequence: RRIRRRPPRLPRPRPRPNIGPRP
- shrunken log2 fold change: -0.89

Sequence: RRIRGRPPRLPRPRPRPSFYPRP
- shrunken log2 fold change: 0.00205

Sequence: RRIRYRPPRLPRPRPRPDMQPRP
- shrunken log2 fold change: 0.0426

Sequence: RRIRTRPPRLPRPRPRPIYKPRP
- shrunken log2 fold change: -1.02

Sequence: RRIRSRPPRLPRPRPRPEEVPRP
- shrunken log2 fold change: 0.0829

Sequence: RRIRSRPPRLPRPRPRPRCLPRP
- shrunken log2 fold change: 0.0297

Sequence: RRIRKRPPRLPRPRPRPVLYPRP
- shrunken log2 fold change: -0.0796

Sequence: RRIRMRPPRLPRPRPRPCRFPRP
- shrunken log2 fold change: -0.0352

Sequence: RRIRMRPPRLPRPRPRPVMMPRP
- shrunken log2 fold change: 0.147

Sequence: RRIRYRPPRLPRPRPRPAQWPRP
- shrunken log2 fold change: -0.294

Sequence: RRIRMRPPRLPRPRPRPDEYPRP
- shrunken log2 fold change: 1.62

Sequence: RRIRIRPPRLPRPRPRPFFVPRP
- shrunken log2 fold change: -0.294

Sequence: RRIRIRPPRLPRPRPRPAPQPRP
- shrunken log2 fold change: 0.363

Sequence: RRIRARPPRLPRPRPRPAESPRP
- shrunken log2 fold change: 0.531

Sequence: RRIRRRPPRLPRPRPRPRPTPRP
- shrunken log2 fold change: 0.821

Sequence: RRIRRRPPRLPRPRPRPLWLPRP
- shrunken log2 fold change: -0.107

Sequence: RRIRMRPPRLPRPRPRPATKPRP
- shrunken log2 fold change: 0.103

Sequence: RRIRTRPPRLPRPRPRPEYQPRP
- shrunken log2 fold change: 0.066

Sequence: RRIRMRPPRLPRPRPRPTQFPRP
- shrunken log2 fold change: 0.178

Sequence: RRIRIRPPRLPRPRPRPKAEPRP
- shrunken log2 fold change: 0.124

Sequence: RRIRKRPPRLPRPRPRPRDIPRP
- shrunken log2 fold change: 0.246

Sequence: RRIRCRPPRLPRPRPRPHGDPRP
- shrunken log2 fold change: -0.0473

Sequence: RRIRVRPPRLPRPRPRPQFVPRP
- shrunken log2 fold change: -0.122

Sequence: RRIRTRPPRLPRPRPRPTLVPRP
- shrunken log2 fold change: 0.0196

Sequence: RRIRSRPPRLPRPRPRPNQYPRP
- shrunken log2 fold change: 0.2

Sequence: RRIRCRPPRLPRPRPRPTFYPRP
- shrunken log2 fold change: -0.237

Sequence: RRIRCRPPRLPRPRPRPQQNPRP
- shrunken log2 fold change: 0.0237

Sequence: RRIRRRPPRLPRPRPRPVEAPRP
- shrunken log2 fold change: 0.118

Sequence: RRIRGRPPRLPRPRPRPPACPRP
- shrunken log2 fold change: 1.36

Sequence: RRIRFRPPRLPRPRPRPMIWPRP
- shrunken log2 fold change: -0.101

Sequence: RRIRSRPPRLPRPRPRPITGPRP
- shrunken log2 fold change: -0.105

Sequence: RRIRKRPPRLPRPRPRPLHQPRP
- shrunken log2 fold change: 0.393

Sequence: RRIRARPPRLPRPRPRPKNWPRP
- shrunken log2 fold change: 0.465

Sequence: RRIRGRPPRLPRPRPRPLQEPRP
- shrunken log2 fold change: 1.56

Sequence: RRIRSRPPRLPRPRPRPSRSPRP
- shrunken log2 fold change: 0.179

Sequence: RRIRSRPPRLPRPRPRPEWVPRP
- shrunken log2 fold change: 0.146

Sequence: RRIRCRPPRLPRPRPRPHMYPRP
- shrunken log2 fold change: -0.715

Sequence: RRIRVRPPRLPRPRPRPLVSPRP
- shrunken log2 fold change: 0.339

Sequence: RRIRTRPPRLPRPRPRPHPIPRP
- shrunken log2 fold change: -0.165

Sequence: RRIRVRPPRLPRPRPRPAQNPRP
- shrunken log2 fold change: 0.261

Sequence: RRIRMRPPRLPRPRPRPHHQPRP
- shrunken log2 fold change: -0.526

Sequence: RRIRYRPPRLPRPRPRPKITPRP
- shrunken log2 fold change: -0.57

Sequence: RRIRVRPPRLPRPRPRPNRSPRP
- shrunken log2 fold change: -0.0169

Sequence: RRIRSRPPRLPRPRPRPVMDPRP
- shrunken log2 fold change: -0.496

Sequence: RRIRFRPPRLPRPRPRPCAHPRP
- shrunken log2 fold change: -0.197

Sequence: RRIRYRPPRLPRPRPRPDPSPRP
- shrunken log2 fold change: -0.566

Sequence: RRIRARPPRLPRPRPRPQTIPRP
- shrunken log2 fold change: -0.196

Sequence: RRIRLRPPRLPRPRPRPLKRPRP
- shrunken log2 fold change: -0.0716

Source: the supplement of paper PMC9112550, “Optimization of the antimicrobial peptide Bac7 by deep mutational scanning” (BMC Biology, 2022)
